Test results as given in article PMC10907630.

Columns and labels:
Test in all cases: EMSA
tau 1N4R, P10636-7 = conditions: Hill fit, EMSA: 20 nM DNA or nucleosome, 20 mM HEPES pH 7.2, 10 mM NaCl (or 150), 0.5 mM TCEP, 0.1% Tween-20, 5% sucrose, room temperature 20 min, FA: 10 nM DNA, same …
[1] = system: PG-ptau (tau 1N4R phosphorylated by PKA and GSK-3β), P10636-7; conditions: EMSA: 20 nM DNA or nucleosome, 20 mM HEPES pH 7.2, 10 mM NaCl (or 150), 0.5 mM TCEP, 0.1% Tween-20, 5% sucrose, room temperature 20 min, FA: 10 nM DNA, same …
[2] = system: tau ΔPRD-DBR (1N4R) del191-211, P10636-7; conditions: EMSA: 20 nM DNA or nucleosome, 20 mM HEPES pH 7.2, 10 mM NaCl (or 150), 0.5 mM TCEP, 0.1% Tween-20, 5% sucrose, room temperature 20 min; FA: 10 nM DNA, same …
Chain of tau ΔPRD-DBR (1N4R) del191-211, P10636-7 (P10636 other isoform, or with tags, fused parts or gaps mutant): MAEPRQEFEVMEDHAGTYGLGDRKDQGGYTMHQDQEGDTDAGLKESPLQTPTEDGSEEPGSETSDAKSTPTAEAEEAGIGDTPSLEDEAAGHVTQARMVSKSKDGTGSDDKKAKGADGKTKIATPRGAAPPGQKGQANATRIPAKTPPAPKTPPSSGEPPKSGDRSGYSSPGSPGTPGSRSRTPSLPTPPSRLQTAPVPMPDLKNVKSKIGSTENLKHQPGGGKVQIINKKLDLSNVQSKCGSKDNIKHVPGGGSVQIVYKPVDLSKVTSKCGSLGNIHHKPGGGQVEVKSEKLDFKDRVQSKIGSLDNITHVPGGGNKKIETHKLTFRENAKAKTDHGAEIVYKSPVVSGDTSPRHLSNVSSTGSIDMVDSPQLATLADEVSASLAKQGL

Chain of PG-ptau (tau 1N4R phosphorylated by PKA and GSK-3β), P10636-7 (P10636 other isoform, or with tags, fused parts or gaps): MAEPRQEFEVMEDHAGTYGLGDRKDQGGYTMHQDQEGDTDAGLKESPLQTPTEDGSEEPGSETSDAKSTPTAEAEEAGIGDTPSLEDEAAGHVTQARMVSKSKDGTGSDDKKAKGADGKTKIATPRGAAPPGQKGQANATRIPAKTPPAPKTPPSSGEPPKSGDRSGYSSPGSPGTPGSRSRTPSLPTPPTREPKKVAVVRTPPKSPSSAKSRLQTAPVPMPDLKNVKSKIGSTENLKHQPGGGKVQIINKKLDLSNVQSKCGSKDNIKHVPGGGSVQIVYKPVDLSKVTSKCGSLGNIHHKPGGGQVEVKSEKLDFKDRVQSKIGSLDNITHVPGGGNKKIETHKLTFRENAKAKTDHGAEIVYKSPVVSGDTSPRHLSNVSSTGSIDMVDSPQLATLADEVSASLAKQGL
Chain of tau 1N4R, P10636-7 (P10636 other isoform, or with tags, fused parts or gaps): as above

Sequence: CTGGAGAATCCCGGTGCCGAGGCCGCTCAATTGGTCGTAGACAGCTCTAGCACCGCTTAAACGCACGTACGCGCTGTCCCCCGCGTTTTAACCGCCAAGGGGATTACTCCCTAGTCTCCAGGCACGTGTCAGATATATACATCCTGT (double strand) [147 bp mononucleosome (linker-free)]
- Kd (tau 1N4R, P10636-7; 10 mM NaCl): 83.4 nM

Sequence: ACTACGCGGCCGCCCTGGAGAATCCCGGTGCCGAGGCCGCTCAATTGGTCGTAGACAGCTCTAGCACCGCTTAAACGCACGTACGCGCTGTCCCCCGCGTTTTAACCGCCAAGGGGATTACTCCCTAGTCTCCAGGCACGTGTCAGATATATACATCCTGTGCATGTAAGATCCAGT (double strand) [177 bp DNA (601)]
- Kd (tau 1N4R, P10636-7; 10 mM NaCl): 135 nM
- Kd (tau 1N4R, P10636-7; 150 mM NaCl): 188 nM
- Kd ([1]; 150 mM NaCl (Fig. S12 legend says 10 mM)): 426 nM
- Kd [1]: 241 nM
- Kd [2]: 410 nM

Sequence: ACTACGCGGCCGCCCTGGAGAATCCCGGTGCCGAGGCCGCTCAATTGGTCGTAGACAGCTCTAGCACCGCTTAAACGCACGTACGCGCTGTCCCCCGCGTTTTAACCGCCAAGGGGATTACTCCCTAGTCTCCAGGCACGTGTCAGATATATACATCCTGTGCATGTAAGATCCAGT (double strand) [177 bp mononucleosome]
- Kd (tau 1N4R, P10636-7; 10 mM NaCl): 106 nM
- Kd [1]: 166 nM
